Reference: article PMC3992121 (Proteins, 2013)

B1: BaiA2, 3α-Hydroxysteroid Dehydrogenase from Clostridium scindens VPI 12708 (enzyme, UniProt P19337 1-249, looked up)
chain: MNLVQDKVTIITGGTRGIGFAAAKIFIDNGAKVSIFGETQEEVDTALAQLKELYPEEEVLGFAPDLTSRDAVMAAVGQVAQKYGRLDVMINNAGITSNNVFSRVSEEEFKHIMDINVTGVFNGAWCAYQCMKDAKKGVIINTASVTGIFGSLSGVGYPASKASVIGLTHGLGREIIRKNIRVVGVAPGVVNTDMTNGNPPEIMEGYLKALPMKRMLEPEEIANVYLFLASDLASGITATTVSVDGAYRP
modifications: selenomethionine (protein expressed in a selenomethionine-containing medium for structure determination)
B2: BaiA1, 3α-Hydroxysteroid Dehydrogenase from Clostridium scindens VPI 12708 (enzyme, UniProt P07914 1-249, looked up)
chain: MKLVQDKITIITGGTRGIGFAAAKLFIENGAKVSIFGETQEEVDTALAQLKELYPEEEVLGFAPDLTSRDAVMAAVGTVAQKYGRLDVMINNAGITMNSVFSRVSEEDFKNIMDINVNGVFNGAWSAYQCMKDAKQGVIINTASVTGIYGSLSGIGYPTSKAGVIGLTHGLGREIIRKNIRVVGVAPGVVDTDMTKGLPPEILEDYLKTLPMKRMLKPEEIANVYLFLASDLASGITATTISVDGAYRP

Target: the molecule itself
Assay: SEC

Protein | stoichiometry N
B1 | 4
B2 | 4
